Data taken from the supplement of paper PMC11246515.
± gives the standard deviation of the averaged measurements.

Test: total protein half-life in vivo (active degradation + dilution); higher = more stable protein
[1] = E. coli NCM3722 delta-clpP delta-lon delta-hslV, growth: N-lim chemostat, doubling time 6 h
[2] = E. coli NCM3722 delta-clpP, growth: N-lim chemostat, doubling time 6 h
[3] = E. coli NCM3722 delta-hslV, growth: N-lim chemostat, doubling time 6 h
[4] = E. coli NCM3722 delta-lon, growth: N-lim chemostat, doubling time 6 h
[5] = E. coli NCM3722 delta-smpB, growth: N-lim chemostat, doubling time 6 h
[6] = wild type E. coli NCM3722, growth: C-lim chemostat, doubling time 3 h
[7] = wild type E. coli NCM3722, growth: C-lim chemostat, doubling time 6 h
[8] = wild type E. coli NCM3722, growth: C-lim chemostat, doubling time 12 h
[9] = wild type E. coli NCM3722, growth: N-lim chemostat, doubling time 6 h
[10] = wild type E. coli NCM3722, growth: N-lim chemostat, doubling time 12 h
[11] = wild type E. coli NCM3722, growth: P-lim chemostat, doubling time 6 h
[12] = wild type E. coli NCM3722, growth: P-lim chemostat, doubling time 12 h

Row | Sequence | total protein half-life in vivo [1] | total protein half-life in vivo [2] | total protein half-life in vivo [3] | total protein half-life in vivo [4] | total protein half-life in vivo [5] | total protein half-life in vivo [6] | total protein half-life in vivo [7] | total protein half-life in vivo [8] | total protein half-life in vivo [9] | total protein half-life in vivo [10] | total protein half-life in vivo [11] | total protein half-life in vivo [12]
1 | MNMKLKTLFAAAFAVVGFCSTASAVTYPLPTDGSRLVGQNQVITIPEGNTQPLEYFAAEYQMGLSNMMEANPGVDTFLPKGGTVLNIPQQLILPDTVHEGIVINSAEMRLYYYPKGTNTVIVLPIGIGQLGKDTPINWTTKVERKKAGPTWTPTAKMHAEYRAAGEPLPAVVPAGPDNPMGLYALYIGRLYAIHGTNANFGIGLRVSHGCVRLRNEDIKFLFEKVPVGTRVQFIDEPVKATTEPDGSRYIEVHNPLSTTEAQFEGQEIVPITLTKSVQTVTGQPDVDQVVLDEAIKNRSGMPVRLN [P0AAX8] | 6.81 ± 1.6 h | 5.74 ± 0.27 h | 6.22 ± 0.09 h | 6.15 ± 0.32 h | 6.37 ± 0.75 h | 2.9 ± 0.083 h | 5.76 ± 0.11 h | 11.6 ± 0.4 h | 5.98 ± 0.64 h | 13.7 ± 1.3 h | 5.606 ± 0.037 h | 12.3 ± 0.94 h
2 | MNMKTIEDVFIHLLSDTYSAEKQLTRALAKLARATSNEKLSQAFHAHLEETHGQIERIDQVVESESNLKIKRMKCVAMEGLIEEANEVIESTEKNEVRDAALIAAAQKVEHYEIASYGTLATLAEQLGYRKAAKLLKETLEEEKATDIKLTDLAINNVNKKAENKA | 5.25 ± 0.25 h |  | 5.18 ± 0.69 h | 6.51 ± 0.95 h | 4.94 ± 0.081 h | 3.02 ± 0.13 h | 5.04 ± 0.77 h | 10.5 ± 1.4 h | 4.881 ± 0.03 h | 7.99 ± 0.53 h | 5.294 ± 0.042 h | 10.3 ± 0.62 h
3 | MNMMRIFYIGLSGVGMMFSSMASGNDAGGLQSPACGVVCDPYICVNSDGISPELTRKYLGEKAAENLQSLQGYDPSEFTFANGVFCDVKEKLCRDDRYFGVDGKRSGKINQTTTKMLFMCRE | 5.09 ± 1.6 h | 5.4 h | 6.01 ± 0.28 h | 5.64 h |  | 2.85 ± 0.51 h | 5.52 ± 0.4 h |  | 4.42 ± 1.2 h | > 16 h | 4.78 ± 0.93 h | 
4 | MNNFNLHTPTRILFGKGAIAGLREQIPHDARVLITYGGGSVKKTGVLDQVLDALKGMDVLEFGGIEPNPAYETLMNAVKLVREQKVTFLLAVGGGSVLDGTKFIAAAANYPENIDPWHILQTGGKEIKSAIPMGCVLTLPATGSESNAGAVISRKTTGDKQAFHSAHVQPVFAVLDPVYTYTLPPRQVANGVVDAFVHTVEQYVTKPVDAKIQDRFAEGILLTLIEDGPKALKEPENYDVRANVMWAATQALNGLIGAGVPQDWATHMLGHELTAMHGLDHAQTLAIVLPALWNEKRDTKRAKLLQYAERVWNITEGSDDERIDAAIAATRNFFEQLGVPTHLSDYGLDGSSIPALLKKLEEHGMTQLGENHDITLDVSRRIYEAAR |  | 5.02 ± 0.23 h | 4.48 ± 0.25 h | 4.949 ± 0.041 h | 4.48 ± 0.23 h | 3.27 ± 0.089 h | 6.48 ± 1 h | 11.6 ± 0.92 h | 5.22 ± 0.38 h | 7.834 ± 0.065 h | 5.35 ± 0.47 h | 10.2 ± 0.89 h
5 | MNNHFGKGLMAGLKATHADSAVNVTKFCADYKRGFVLGYSHRMYEKTGDRQLSAWEAGILTRRYGLDKEMVMDFFRENNSCSTLRFFMAGYRLEN | 4.99 ± 0.16 h |  |  |  |  |  |  |  |  |  |  | 
6 | MNNHFKCIGIVGHPRHPTALTTHEMLYRWLCTKGYEVIVEQQIAHELQLKNVKTGTLAEIGQLADLAVVVGGDGNMLGAARTLARYDIKVIGINRGNLGFLTDLDPDNAQQQLADVLEGHYISEKRFLLEAQVCQQDCQKRISTAINEVVLHPGKVAHMIEFEVYIDEIFAFSQRSDGLIISTPTGSTAYSLSAGGPILTPSLDAITLVPMFPHTLSARPLVINSSSTIRLRFSHRRNDLEISCDSQIALPIQEGEDVLIRRCDYHLNLIHPKDYSYFNTLSTKLGWSKKLF [P0A7B3] |  | 4.25 ± 0.11 h | 5.35 ± 1.2 h | 6.6 ± 1.1 h | 4.75 ± 0.69 h | 3.19 ± 0.49 h | 5.33 ± 0.2 h | 12.1 h | 4.4 ± 0.37 h | 7.59 h | 5.9 ± 0.21 h | 11.1 ± 0.2 h
7 | MNNMNVIIADDHPIVLFGIRKSLEQIEWVNVVGEFEDSTALINNLPKLDAHVLITDLSMPGDKYGDGITLIKYIKRHFPSLSIIVLTMNNNPAILSAVLDLDIEGIVLKQGAPTDLPKALAALQKGKKFTPESVSRLLEKISAGGYGDKRLSPKESEVLRLFAEGFLVTEIAKKLNRSIKTISSQKKSAMMKLGVENDIALLNYLSSVTLSPADKD [P0DMC7] | 5.91 ± 1.9 h | 4.22 ± 1.2 h | 2.69 ± 0.2 h | 3.758 ± 0.014 h | 2.9 ± 0.3 h | 2.71 ± 0.096 h | 4.35 ± 0.097 h | 6.66 ± 1.3 h | 3.01 ± 0.38 h | 4.16 ± 0.46 h | 3.42 ± 0.59 h | 5.56 ± 0.093 h
8 | MNNNDLFQASRRRFLAQLGGLTVAGMLGPSLLTPRRATAAQAATDAVISKEGILTGSHWGAIRATVKDGRFVAAKPFELDKYPSKMIAGLPDHVHNAARIRYPMVRVDWLRKRHLSDTSQRGDNRFVRVSWDEALDMFYEELERVQKTHGPSALLTASGWQSTGMFHNASGMLAKAIALHGNSVGTGGDYSTGAAQVILPRVVGSMEVYEQQTSWPLVLQNSKTIVLWGSDLLKNQQANWWCPDHDVYEYYAQLKAKVAAGEIEVISIDPVVTSTHEYLGREHVKHIAVNPQTDVPLQLALAHTLYSENLYDKNFLANYCVGFEQFLPYLLGEKDGQPKDAAWAEKLTGIDAETIRGLARQMAANRTQIIAGWCVQRMQHGEQWAWMIVVLAAMLGQIGLPGGGFGFGWHYNGAGTPGRKGVILSGFSGSTSIPPVHDNSDYKGYSSTIPIARFIDAILEPGKVINWNGKSVKLPPLKMCIFAGTNPFHRHQQINRIIEGLRKLETVIAIDNQWTSTCRFADIVLPATTQFERNDLDQYGNHSNRGIIAMKQVVPPQFEARNDFDIFRELCRRFNREEAFTEGLDEMGWLKRIWQEGVQQGKGRGVHLPAFDDFWNNKEYVEFDHPQMFVRHQAFREDPDLEPLGTPSGLIEIYSKTIADMNYDDCQGHPMWFEKIERSHGGPGSQKYPLHLQSVHPDFRLHSQLCESETLRQQYTVAGKEPVFINPQDASARGIRNGDVVRVFNARGQVLAGAVVSDRYAPGVARIHEGAWYDPDKGGEPGALCKYGNPNVLTIDIGTSQLAQATSAHTTLVEIEKYNGTVEQVTAFNGPVEMVAQCEYVPASQVKS |  |  |  | 7.84 h | 5.54 h | 3.3 ± 0.074 h | 4.64 ± 2.7 h | 13.2 ± 1.9 h | 7.02 ± 0.15 h | 14 ± 1.4 h | 6.85 ± 0.67 h | 12.6 ± 0.63 h
9 | MNNNDLVAKLWKLCDNLRDGGVSYQNYVNELASLLFLKMCKETGQEAEYLPEGYRWDDLKSRIGQEQLQFYRKMLVHLGEDDKKLVQAVFHNVSTTITEPKQITALVSNMDSLDWYNGAHGKSRDDFGDMYEGLLQKNANETKSGAGQYFTPRPLIKTIIHLLKPQPREVVQDPAAGTAGFLIEADRYVKSQTNDLDDLDGDTQDFQIHRAFIGLELVPGTRRLALMNCLLHDIEGNLDHGGAIRLGNTLGSDGENLPKAHIVATNPPFGSAAGTNITRTFVHPTSNKQLCFMQHIIETLHPGGRAAVVVPDNVLFEGGKGTDIRRDLMDKCHLHTILRLPTGIFYAQGVKTNVLFFTKGTVANPNQDKNCTDDVWVYDLRTNMPSFGKRTPFTDEHLQPFERVYGEDPHGLSPRTEGEWSFNAEETEVADSEENKNTDQHLATSRWRKFSREWIRTAKSDSLDISWLKDKDSIDADSLPEPDVLAAEAMGELVQALSELDALMRELGASDEADLQRQLLEEAFGGVKE | 5.68 ± 0.29 h | 4.9709 ± 0.0002 h | 4.85 ± 0.48 h | 4.72 ± 0.37 h | 4.17 ± 0.28 h | 2.586 ± 0.0099 h | 5.252 ± 0.027 h | 9.58 ± 1 h | 4.476 ± 0.014 h | 7.36 ± 0.36 h | 5.18 ± 0.24 h | 10.5 ± 0.66 h
10 | MNNRVHQGHLARKRFGQNFLNDQFVIDSIVSAINPQKGQAMVEIGPGLAALTEPVGERLDQLTVIELDRDLAARLQTHPFLGPKLTIYQQDAMTFNFGELAEKMGQPLRVFGNLPYNISTPLMFHLFSYTDAIADMHFMLQKEVVNRLVAGPNSKAYGRLSVMAQYYCNVIPVLEVPPSAFTPPPKVDSAVVRLVPHATMPHPVKDVRVLSRITTEAFNQRRKTIRNSLGNLFSVEVLTGMGIDPAMRAENISVAQYCQMANYLAENAPLQES | 5.45 ± 0.071 h | 5.39 ± 0.83 h | 5.18 ± 0.36 h | 5.84 ± 0.95 h | 5.39 ± 0.63 h | 2.972 ± 0.017 h | 5.41 ± 0.75 h | 12.5 ± 1.5 h | 5.24 ± 0.29 h | 9.91 ± 1.2 h | 5.56 ± 0.3 h | 10.6 ± 0.28 h
11 | MNNSAFTFQTLHPDTIMDALFEHGIRVDSGLTPLNSYENRVYQFQDEDRRRFVVKFYRPERWTADQILEEHQFALQLVNDEVPVAAPVAFNGQTLLNHQGFYFAVFPSVGGRQFEADNIDQMEAVGRYLGRMHQTGRKQLFIHRPTIGLNEYLIEPRKLFEDATLIPSGLKAAFLKATDELIAAVTAHWREDFTVLRLHGDCHAGNILWRDGPMFVDLDDARNGPAVQDLWMLLNGDKAEQRMQLETIIEAYEEFSEFDTAEIGLIEPLRAMRLVYYLAWLMRRWADPAFPKNFPWLTGEDYWLRQTATFIEQAKVLQEPPLQLTPMY [P0C0K3] | 3.88 ± 0.5 h | 5.41 ± 1.8 h | 4.37 ± 0.62 h | 4.43 ± 0.29 h | 4.22 ± 0.26 h | 2.99 ± 0.046 h | 5.38 ± 0.61 h | 10.3 ± 1.3 h | 4.23 ± 0.21 h | 6.67 ± 0.66 h | 6.02 ± 0.38 h | 10.3 ± 0.64 h
